Assay results taken from IntAct's records for PubMed 16698552.

B1: Eukaryotic translation initiation factor 4 gamma 1 (Homo sapiens), Q04637-8 (parent)
chain: MNKAPQSTGPPPAPSPGLPQPAFPPGQTAPVVFSTPQATQMNTPSQPRQHFYPSRAQPPSSAASRVQSAAPARPGPAAHVYPAGSQVMMIPSQISYPASQGAYYIPGQGRSTYVVPTQQYPVQPGAPGFYPGASPTEFGTYAGAYYPAQGVQQFPTGVAPTPVLMNQPPQIAPKRERKTIRIRDPNQGGKDITEEIMSGARTASTPTPPQTGGGLEPQANGETPQVAVIVRPDDRSQGAIIADRPGLPGPEHSPSESQPSSPSPTPSPSPVLEPGSEPNLAVLSIPGDTMTTIQMSVEESTPISRETGEPYRLSPEPTPLAEPILEVEVTLSKPVPESEFSSSPLQAPTPLASHTVEIHEPNGMVPSEDLEPEVESSPELAPPPACPSESPVPIAPTAQPEELLNGAPSPPAVDLSPVSEPEEQAKEVTASMAPPTIPSATPATAPSATSPAQEEEMEEEEEEEEGEAGEAGEAESEKGGEELLPPESTPIPANLSQNLEAAAATQVAVSVPKRRRKIKELNKKEAVGDLLDAFKEANPAVPEVENQPPAGSNPGPESEGSGVPPRPEEADETWDSKEDKIHNAENIQPGEQKYEYKSDQWKPLNLEEKKRYDREFLLGFQFIFASMQKPEGLPHISDVVLDKANKTPLRPLDPTRLQGINCGPDFTPSFANLGRTTLSTRGPPRGGPGGELPRGPQAGLGPRRSQQGPRKEPRKIIATVLMTEDIKLNKAEKAWKPSSKRTAADKDRGEEDADGSKTQDLFRRVRSILNKLTPQMFQQLMKQVTQLAIDTEERLKGVIDLIFEKAISEPNFSVAYANMCRCLMALKVPTTEKPTVTVNFRKLLLNRCQKEFEKDKDDDEVFEKKQKEMDEAATAEERGRLKEELEEARDIARRRSLGNIKFIGELFKLKMLTEAIMHDCVVKLLKNHDEESLECLCRLLTTIGKDLDFEKAKPRMDQYFNQMEKIIKEKKTSSRIRFMLQDVLDLRGSNWVPRRGDQGPKTIDQIHKEAEMEEHREHIKVQQLMAKGSDKRRGGPPGPPISRGLPLVDDGGWNTVPISKGSRPIDTSRLTKITKPGSIDSNNQLFAPGGRLSWGKGSSGGSGAKPSDAASEAARPATSTLNRFSALQQAVPTESTDNRRVVQRSSLSRERGEKAGDRGDRLERSERGGDRGDRLDRARTPATKRSFSKEVEERSRERPSQPEGLRKAASLTEDRDRGRDAVKREAALPPVSPLKAALSEEELEKKSKAIIEEYLHLNDMKEAVQCVQELASPSLLFIFVRHGVESTLERSAIAREHMGQLLHQLLCAGHLSTAQYYQGLYEILELAEDMEIDIPHVWLYLAELVTPILQEGGVPMGELFREITKPLRPLGKAASLLLEILGLLCKSMGPKKVGTLWREAGLSWKEFLPEGQDIGAFVAEQKVEYTLGEESEAPGQRALPSEELNRQLEKLLKEGSSNQRVFDWIEANLSEQQIVSNTLVRALMTAVCYSAIIFETPLRVDVAVLKARAKLLQKYLCDEQKELQALYALQALVVTLEQPPNLLRMFFDALYDEDVVKEDAFYSWESSKDPAEQQGKGVALKSVTAFFKWLREAEEESDHN

Variants of: B1
Conditions: with if4g1_human EIF4G1, Q04637
I1278A;F1279A;V1280A was tested, and the “effect of a mutation on the interaction” value was “disrupting interaction”.
